Reference: patent publication US20050004353A1 (Amgen, published 2005)
Values joined by “and” are separate entries in the source; they are usually repeats but may differ in a detail not shown here. Identical values can stand only once. Blank lines part the entries; values can stand above or below the binder they belong to.

Columns and labels:
[1] = biological target: T1, human interferon-gamma (IFN-γ) (human, UniProt P01579 24-161); test: cell-based or functional assay
T1 sequence (looked up): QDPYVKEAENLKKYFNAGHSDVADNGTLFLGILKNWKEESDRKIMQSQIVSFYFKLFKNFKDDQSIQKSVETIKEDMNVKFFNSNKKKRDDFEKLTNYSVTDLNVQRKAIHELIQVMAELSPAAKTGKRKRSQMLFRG

[2] = biological target: T1, human interferon-gamma (IFN-γ); test: ELISA on plates coated with recombinant IFN-γ, antibody purified from hybridoma supernatant
[3] = biological target: T1, human interferon-gamma (IFN-γ); test: equilibrium-binding assay in solution, free antibody captured on IFN-γ coupled beads, KinExA
Description: Binding kinetics for several of the antibodies to IFN-γ were measured by BIAcore analysis. […] Accordingly, an equilibrium-binding assay was developed and used. A fixed amount of antibody was incubated with various concentrations of IFN-γ for greater than 5 hours in order to reach equilibrium and then contacted with IFN-γ coupled beads for a very brief time, and the amount of free antibody that bound to the beads was measured in a KINEXA™ machine (Sapidyne Instruments Inc., Boise, Id.), a fluorescence based immunoassay instrument. The lowest equilibrium dissociation constant obtained, ˜24 pM, was with the 1119 antibody.

huIFN-γR65 = biological target: T2, huIFN-γR65 (human, UniProt P01579 24-161); test: cell-based or functional assay
T2 sequence (looked up): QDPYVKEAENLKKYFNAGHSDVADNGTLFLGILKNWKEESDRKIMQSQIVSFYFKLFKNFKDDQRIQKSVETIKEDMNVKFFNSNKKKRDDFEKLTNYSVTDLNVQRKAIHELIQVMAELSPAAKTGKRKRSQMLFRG

huIFN-γI77 = biological target: T3, huIFN-γI77 (human, UniProt P01579 24-161); test: cell-based or functional assay
T3 sequence (looked up): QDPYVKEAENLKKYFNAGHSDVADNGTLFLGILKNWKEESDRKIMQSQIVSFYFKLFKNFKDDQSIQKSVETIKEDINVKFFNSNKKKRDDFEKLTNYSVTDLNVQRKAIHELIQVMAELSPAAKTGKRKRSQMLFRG

huIFN-γS103 = biological target: T4, huIFN-γS103 (human, UniProt P01579 24-161); test: cell-based or functional assay
T4 sequence (looked up): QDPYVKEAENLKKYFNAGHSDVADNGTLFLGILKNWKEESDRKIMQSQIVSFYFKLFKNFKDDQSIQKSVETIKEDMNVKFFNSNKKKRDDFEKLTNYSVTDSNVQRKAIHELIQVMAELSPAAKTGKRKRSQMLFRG

huIFN-γR34 = biological target: T5, huIFN-γR34 (human, UniProt P01579 24-161); test: cell-based or functional assay
T5 sequence (looked up): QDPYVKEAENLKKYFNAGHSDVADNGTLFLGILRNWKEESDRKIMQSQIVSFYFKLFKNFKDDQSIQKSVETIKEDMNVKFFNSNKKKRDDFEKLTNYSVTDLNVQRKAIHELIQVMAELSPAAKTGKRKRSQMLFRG

cynomolgus monkey IFN-γ = biological target: T6, cynomolgus monkey IFN-γ (cynomolgus monkey, UniProt P63309 24-165); test: cell-based or functional assay
T6 sequence (looked up): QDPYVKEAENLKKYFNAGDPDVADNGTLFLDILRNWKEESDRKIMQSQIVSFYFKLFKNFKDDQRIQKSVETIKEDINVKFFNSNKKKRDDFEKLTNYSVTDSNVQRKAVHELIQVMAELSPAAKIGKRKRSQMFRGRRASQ

huIFN-γD31 = biological target: T7, huIFN-γD31 (human, UniProt P01579 24-161); test: cell-based or functional assay
T7 sequence (looked up): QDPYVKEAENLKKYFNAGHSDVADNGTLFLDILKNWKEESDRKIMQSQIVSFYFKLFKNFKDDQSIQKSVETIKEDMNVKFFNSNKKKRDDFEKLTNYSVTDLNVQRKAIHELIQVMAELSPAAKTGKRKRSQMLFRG

huIFN-γV110 = biological target: T8, huIFN-γV110 (human, UniProt P01579 24-161); test: cell-based or functional assay
T8 sequence (looked up): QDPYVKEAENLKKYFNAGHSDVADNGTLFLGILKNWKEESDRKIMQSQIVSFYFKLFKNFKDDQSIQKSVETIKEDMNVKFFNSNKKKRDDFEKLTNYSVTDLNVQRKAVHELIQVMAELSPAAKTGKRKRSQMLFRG

huIFN-γD19 = biological target: T9, huIFN-γD19 (human, UniProt P01579 24-161); test: cell-based or functional assay
T9 sequence (looked up): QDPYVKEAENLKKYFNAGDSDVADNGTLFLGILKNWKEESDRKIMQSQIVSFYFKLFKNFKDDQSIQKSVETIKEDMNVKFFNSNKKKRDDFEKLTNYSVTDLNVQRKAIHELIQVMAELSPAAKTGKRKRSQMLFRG

huIFN-γI126 = biological target: T10, huIFN-γI126 (human, UniProt P01579 24-161); test: cell-based or functional assay
T10 sequence (looked up): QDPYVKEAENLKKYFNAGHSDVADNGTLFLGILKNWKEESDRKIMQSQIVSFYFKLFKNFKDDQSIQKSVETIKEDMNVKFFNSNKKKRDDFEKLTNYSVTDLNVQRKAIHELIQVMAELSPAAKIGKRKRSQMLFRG

huIFN-γP20 = biological target: T11, huIFN-γP20 (human, UniProt P01579 24-161); test: cell-based or functional assay
T11 sequence (looked up): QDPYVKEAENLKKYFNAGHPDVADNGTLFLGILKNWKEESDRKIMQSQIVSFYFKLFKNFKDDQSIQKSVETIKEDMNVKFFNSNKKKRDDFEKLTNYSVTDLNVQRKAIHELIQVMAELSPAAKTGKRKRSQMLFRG

- IC50, A549 bioassay (inhibition of the anti-proliferative effect of IFN-γ, 30 pM IFN-γ) [1]: 46 pM
- IC50, THP-1/HLA DR bioassay (21 pM IFN-γ) [1]: 60 pM
B1: 1121 anti-IFN-γ antibody (antibody, V domains shown)
VH: EVQLVQSGAEVKKPGESLKISCKGSGYNFTSYWIGWVRQMPGKGLEWMGIIYPGDSDTRYSPSFQGQVTISADKSISTAYLQWSSLKASDTAMYYCGSGSYWYFDLWGRGTLVTVSS
VL: EIVLTQSPGTLSLSPGERATLSCRASQSVSSSYLAWYQQKPGQAPRLLIYGASSRATGIPDRFSGSGSGTDFTLTISRLEPEDFAVYYCQRSGGSSFTFGPGTKVDIKR

- binding result [2]: binds
B2: 1121* anti-IFN-γ antibody (antibody, human IgG1, kappa, V domains shown)
VH: EVQLVQSGAEVKKPGESLKISCKGSGYNFTSYWIGWVRQMPGKGLEWMGIIYPGDSDTRYSPSFQGQVTISADKSISTAYLQWSSLKASDTAMYYCGSGSYWYFDLWGRGTLVTVSS
VL: EIVLTQSPGTLSLSPGERATLSCRASQSIISSYLAWYQQKPGQTPRLLIYGVSSRATGIPDRFSGSGSGTDFTLTITRLEPEDFAVYYCQQYGNSFMYTFGQGTKLEIKR
notes: the ELISA used antibody purified from hybridoma supernatant

- Kd [3]: ~0.024 nM
- % Neutralization by 1119 (A549 bioassay) (huIFN-γR65): 109%
- % Neutralization by 1119 (A549 bioassay) (huIFN-γI77): 108%
- % Neutralization by 1119 (A549 bioassay) (huIFN-γS103): 102%
- % Neutralization by 1119 (A549 bioassay) (huIFN-γR34): 109%
- % Neutralization by 1119 (A549 bioassay) (cynomolgus monkey IFN-γ): 0%
- % Neutralization by 1119 (A549 bioassay) (huIFN-γD31): 103%
- % Neutralization by 1119 (A549 bioassay) (huIFN-γV110): 103%
- % Neutralization by 1119 (A549 bioassay) (huIFN-γD19): 0%
- % Neutralization by 1119 (A549 bioassay) (huIFN-γI126): 109%
- % Neutralization by 1119 (A549 bioassay) (huIFN-γP20): 0%
- IC50, A549 bioassay (inhibition of the anti-proliferative effect of IFN-γ, 30 pM IFN-γ) [1]: 14 pM
- IC50, THP-1/HLA DR bioassay (21 pM IFN-γ) [1]: 14 pM
- IC50, human whole blood bioassay (IFN-γ-induced IP-10 production), one of two donors [1]: 0.017 nM and 0.014 nM
B3: 1119 anti-IFN-γ antibody (antibody, human IgG1, kappa, V domains shown)
VH: EVQLVQSGAEVKKPGESLKISCKGSGYNFTSYWIGWVRQMPGKGLELMGIIYPGDSDTRYSPSFQGQVTISADKSISTAYLQWSSLKASDTAMYYCGSGSYFYFDLWGRGTLVTVSS
VL: EIVLTQSPGTLSLSPGERATLSCRASQSVSSSYLAWYQQKPGQAPRLLIYGASSRATGIPDRFSGSGSGTDFTLTISRLEPEDFAVYYCQRSGGSSFTFGPGTKVDIKR
notes: also called 1119 antibody; 1119 mAb

- IC50, A549 bioassay (inhibition of the anti-proliferative effect of IFN-γ, 30 pM IFN-γ) [1]: 97 pM
- IC50, THP-1/HLA DR bioassay (21 pM IFN-γ) [1]: 86 pM
B4: 1118 anti-IFN-γ antibody (antibody, V domains shown)
VH: EVQLVQSGAEVKKPGESLKISCKGSGYSFTSYWIGWVRQMPGKGLEWMGIIYPGDSDTRYSPSFQGQVTISADKSISTAYLQWSSLKASDTAMYYCGSGSYWYFDLWGRGTLVTVSS
VL: EIVLTQSPGTLSLSPGERATLSCRASQSVSSSSLAWYQQKPGQAPRLLIYGASSRATGIPDRFSGSGSGTDFTLTISRLEPEDFAVYYCQRSGGSSFTFGPGTKVDIKR
